From patent US8889621B2, “Inhibiting binding of FGF23 to the binary FGFR-Klotho complex for the treatment of hypophosphatemia” (New York University, priority 2009, dated 2014) come the findings set out here.

This test addresses T1, FGFR1c-Klotho complex (UniProt O35082+P11362).
T1 construct: The ectodomain of murine Klotho (A35 to K982) was purified from culture media; FLAG (C); made in house; host or cells: E. coli (FGFR1c); HEK293 conditioned media (Klotho ectodomain)
T1 sequence (P11362 142-365): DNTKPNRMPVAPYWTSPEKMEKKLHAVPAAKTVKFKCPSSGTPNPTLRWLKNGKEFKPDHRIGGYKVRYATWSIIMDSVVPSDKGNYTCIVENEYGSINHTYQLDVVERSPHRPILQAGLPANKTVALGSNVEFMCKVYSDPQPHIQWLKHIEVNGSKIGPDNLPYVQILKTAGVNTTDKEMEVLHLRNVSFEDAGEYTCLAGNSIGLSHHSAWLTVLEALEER
T1 sequence (O35082 35-982): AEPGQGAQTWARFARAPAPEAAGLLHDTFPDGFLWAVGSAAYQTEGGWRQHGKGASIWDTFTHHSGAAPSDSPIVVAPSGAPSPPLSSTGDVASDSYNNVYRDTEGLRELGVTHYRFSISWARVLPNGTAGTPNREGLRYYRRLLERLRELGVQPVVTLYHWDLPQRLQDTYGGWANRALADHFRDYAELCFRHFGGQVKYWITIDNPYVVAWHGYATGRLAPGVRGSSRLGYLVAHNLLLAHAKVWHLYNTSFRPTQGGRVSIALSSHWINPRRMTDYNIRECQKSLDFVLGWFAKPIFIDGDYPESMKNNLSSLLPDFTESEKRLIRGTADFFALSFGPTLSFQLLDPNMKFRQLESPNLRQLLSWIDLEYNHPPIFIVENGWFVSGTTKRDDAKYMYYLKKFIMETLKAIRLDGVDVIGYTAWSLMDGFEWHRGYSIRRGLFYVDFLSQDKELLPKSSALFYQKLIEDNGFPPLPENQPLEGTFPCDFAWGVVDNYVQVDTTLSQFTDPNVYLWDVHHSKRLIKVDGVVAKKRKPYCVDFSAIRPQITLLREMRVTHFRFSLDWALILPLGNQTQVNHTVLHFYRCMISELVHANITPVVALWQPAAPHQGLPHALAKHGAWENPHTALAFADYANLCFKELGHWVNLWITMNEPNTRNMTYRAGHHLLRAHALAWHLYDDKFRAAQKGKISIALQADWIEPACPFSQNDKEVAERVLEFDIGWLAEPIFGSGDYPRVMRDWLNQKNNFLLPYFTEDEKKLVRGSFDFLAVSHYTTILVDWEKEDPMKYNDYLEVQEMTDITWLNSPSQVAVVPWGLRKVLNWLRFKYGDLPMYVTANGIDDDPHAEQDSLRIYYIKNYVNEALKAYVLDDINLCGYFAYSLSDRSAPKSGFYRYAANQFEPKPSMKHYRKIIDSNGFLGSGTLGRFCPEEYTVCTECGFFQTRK
Description: Size-exclusion chromatography of ternary complex formation. The conditions noted are these: 1.0 M NaCl, pH7.5. The class given is binding, human FGFR1c, murine Klotho. As for the experimental part:
Size-exclusion chromatography may also be used to determine that an agent specifically binds the binary FGFR-Klotho complex. One aspect of the present invention utilizes size-exclusion chromatography. The size-exclusion chromatography experiments were performed on a HiLoad™ 16/60 Superdex™ 200 prep grade column. Because of poor solubility of FGF23 proteins and FGFR1c ectodomain in low salt buffer, the experiments were carried out with 25 mM HEPES-NaOH buffer, pH7.5, containing 1.0 M NaCl. Sample injection volume was 0.3 to 1.0 ml, and the flow rate was 1.0 ml min^−1. Protein retention times were determined by absorbance at 280 nm. The column was calibrated with ferritin (440 kDa), immunoglobulin G (150 kDa), albumin (69.3 kDa), ovalbumin (44.3 kDa), and carbonic anhydrase (28.8 kDa). The void volume was determined using blue dextran 2,000. […]
Size-exclusion chromatography experiments were performed on a HiLoad™ 16/60 Superdex™ 200 prep grade column (GE Healthcare) mounted on an ÄKTApurifier (GE Healthcare). […] Protein retention times were determined by absorbance at 280 nm. […] The void volume was determined using blue dextran 2,000. […]
On the technique in general: In gel filtration, larger molecules generally elute earlier.

B1: FGF23^28-251: human FGF23 (A28 to I251), bioactive full-length ligand expressed in E. coli (protein, listed as Homo sapiens)
chain: ASPLLGSSWGGLIHLYTATARNSYHLQIHKNGHVDGAPHQTIYSALMIRSEDAGFVVITGVMSRRYLCMDFRGNIFGSHYFDPENCRFQHQTLENGYDVYHSPQYHFLVSLGRAKRAFLPGMNPPPYSQFLSRRNEIPLIHFNTPIPRRHTRSAEDDSERDPLNVLKPRARMTPAPASCSQELPSAEDNSPMASDPLGVVRGGRVNTHAGGTGPEGCRPFAKFI
For the molecule B1, the “co-elution with the FGFR1c-Klotho complex” value is on record as “co-eluted with the FGFR1c-Klotho complex”.
